# IntAct's records for PubMed 39009827
# B1: Mitotic checkpoint serine/threonine-protein kinase BUB1 (Homo sapiens), O43683 (parent)
# chain: MDTPENVLQMLEAHMQSYKGNDPLGEWERYIQWVEENFPENKEYLITLLEHLMKEFLDKKKYHNDPRFISYCLKFAEYNSDLHQFFEFLYNHGIGTLSSPLYIAWAGHLEAQGELQHASAVLQRGIQNQAEPREFLQQQYRLFQTRLTETHLPAQARTSEPLHNVQVLNQMITSKSNPGNNMACISKNQGSELSGVISSACDKESNMERRVITISKSEYSVHSSLASKVDVEQVVMYCKEKLIRGESEFSFEELRAQKYNQRRKHEQWVNEDRHYMKRKEANAFEEQLLKQKMDELHKKLHQVVETSHEDLPASQERSEVNPARMGPSVGSQQELRAPCLPVTYQQTPVNMEKNPREAPPVVPPLANAISAALVSPATSQSIAPPVPLKAQTVTDSMFAVASKDAGCVNKSTHEFKPQSGAEIKEGCETHKVANTSSFHTTPNTSLGMVQATPSKVQPSPTVHTKEALGFIMNMFQAPTLPDISDDKDEWQSLDQNEDAFEAQFQKNVRSSGAWGVNKIISSLSSAFHVFEDGNKENYGLPQPKNKPTGARTFGERSVSRLPSKPKEEVPHAEEFLDDSTVWGIRCNKTLAPSPKSPGDFTSAAQLASTPFHKLPVESVHILEDKENVVAKQCTQATLDSCEENMVVPSRDGKFSPIQEKSPKQALSSHMYSASLLRLSQPAAGGVLTCEAELGVEACRLTDTDAAIAEDPPDAIAGLQAEWMQMSSLGTVDAPNFIVGNPWDDKLIFKLLSGLSKPVSSYPNTFEWQCKLPAIKPKTEFQLGSKLVYVHHLLGEGAFAQVYEATQGDLNDAKNKQKFVLKVQKPANPWEFYIGTQLMERLKPSMQHMFMKFYSAHLFQNGSVLVGELYSYGTLLNAINLYKNTPEKVMPQGLVISFAMRMLYMIEQVHDCEIIHGDIKPDNFILGNGFLEQDDEDDLSAGLALIDLGQSIDMKLFPKGTIFTAKCETSGFQCVEMLSNKPWNYQIDYFGVAATVYCMLFGTYMKVKNEGGECKPEGLFRRLPHLDMWNEFFHVMLNIPDCHHLPSLDLLRQKLKKVFQQHYTNKIRALRNRLIVLLLECKRSRK
# B2: Cell division control protein 45 homolog (Homo sapiens), O75419 (parent)
# chain: MFVSDFRKEFYEVVQSQRVLLFVASDVDALCACKILQALFQCDHVQYTLVPVSGWQELETAFLEHKEQFHYFILINCGANVDLLDILQPDEDTIFFVCDTHRPVNVVNVYNDTQIKLLIKQDDDLEVPAYEDIFRDEEEDEEHSGNDSDGSEPSEKRTRLEEEIVEQTMRRRQRREWEARRRDILFDYEQYEYHGTSSAMVMFELAWMLSKDLNDMLWWAIVGLTDQWVQDKITQMKYVTDVGVLQRHVSRHNHRNEDEENTLSVDCTRISFEYDLRLVLYQHWSLHDSLCNTSYTAARFKLWSVHGQKRLQEFLADMGLPLKQVKQKFQAMDISLKENLREMIEESANKFGMKDMRVQTFSIHFGFKHKFLASDVVFATMSLMESPEKDGSGTDHFIQALDSLSRSNLDKLYHGLELAKKQLRATQQTIASCLCTNLVISQGPFLYCSLMEGTPDVMLFSRPASLSLLSKHLLKSFVCSTKNRRCKLLPLVMAAPLSMEHGTVTVVGIPPETDSSDRKNFFGRAFEKAAESTSSRMLHNHFDLSVIELKAEDRSKFLDALISLLS
# B3: Tyrosine-protein phosphatase non-receptor type 22 (Homo sapiens), Q9Y2R2 (parent)
# chain: MDQREILQKFLDEAQSKKITKEEFANEFLKLKRQSTKYKADKTYPTTVAEKPKNIKKNRYKDILPYDYSRVELSLITSDEDSSYINANFIKGVYGPKAYIATQGPLSTTLLDFWRMIWEYSVLIIVMACMEYEMGKKKCERYWAEPGEMQLEFGPFSVSCEAEKRKSDYIIRTLKVKFNSETRTIYQFHYKNWPDHDVPSSIDPILELIWDVRCYQEDDSVPICIHCSAGCGRTGVICAIDYTWMLLKDGIIPENFSVFSLIREMRTQRPSLVQTQEQYELVYNAVLELFKRQMDVIRDKHSGTESQAKHCIPEKNHTLQADSYSPNLPKSTTKAAKMMNQQRTKMEIKESSSFDFRTSEISAKEELVLHPAKSSTSFDFLELNYSFDKNADTTMKWQTKAFPIVGEPLQKHQSLDLGSLLFEGCSNSKPVNAAGRYFNSKVPITRTKSTPFELIQQRETKEVDSKENFSYLESQPHDSCFVEMQAQKVMHVSSAELNYSLPYDSKHQIRNASNVKHHDSSALGVYSYIPLVENPYFSSWPPSGTSSKMSLDLPEKQDGTVFPSSLLPTSSTSLFSYYNSHDSLSLNSPTNISSLLNQESAVLATAPRIDDEIPPPLPVRTPESFIVVEEAGEFSPNVPKSLSSAVKVKIGTSLEWGGTSEPKKFDDSVILRPSKSVKLRSPKSELHQDRSSPPPPLPERTLESFFLADEDCMQAQSIETYSTSYPDTMENSTSSKQTLKTPGKSFTRSKSLKILRNMKKSICNSCPPNKPAESVQSNNSSSFLNFGFANRFSKPKGPRNPPPTWNI
# B4: ATP-binding cassette sub-family C member 6 (Homo sapiens), O95255 (parent)
# chain: MAAPAEPCAGQGVWNQTEPEPAATSLLSLCFLRTAGVWVPPMYLWVLGPIYLLFIHHHGRGYLRMSPLFKAKMVLGFALIVLCTSSVAVALWKIQQGTPEAPEFLIHPTVWLTTMSFAVFLIHTERKKGVQSSGVLFGYWLLCFVLPATNAAQQASGAGFQSDPVRHLSTYLCLSLVVAQFVLSCLADQPPFFPEDPQQSNPCPETGAAFPSKATFWWVSGLVWRGYRRPLRPKDLWSLGRENSSEELVSRLEKEWMRNRSAARRHNKAIAFKRKGGSGMKAPETEPFLRQEGSQWRPLLKAIWQVFHSTFLLGTLSLIISDVFRFTVPKLLSLFLEFIGDPKPPAWKGYLLAVLMFLSACLQTLFEQQNMYRLKVLQMRLRSAITGLVYRKVLALSSGSRKASAVGDVVNLVSVDVQRLTESVLYLNGLWLPLVWIVVCFVYLWQLLGPSALTAIAVFLSLLPLNFFISKKRNHHQEEQMRQKDSRARLTSSILRNSKTIKFHGWEGAFLDRVLGIRGQELGALRTSGLLFSVSLVSFQVSTFLVALVVFAVHTLVAENAMNAEKAFVTLTVLNILNKAQAFLPFSIHSLVQARVSFDRLVTFLCLEEVDPGVVDSSSSGSAAGKDCITIHSATFAWSQESPPCLHRINLTVPQGCLLAVVGPVGAGKSSLLSALLGELSKVEGFVSIEGAVAYVPQEAWVQNTSVVENVCFGQELDPPWLERVLEACALQPDVDSFPEGIHTSIGEQGMNLSGGQKQRLSLARAVYRKAAVYLLDDPLAALDAHVGQHVFNQVIGPGGLLQGTTRILVTHALHILPQADWIIVLANGAIAEMGSYQELLQRKGALMCLLDQARQPGDRGEGETEPGTSTKDPRGTSAGRRPELRRERSIKSVPEKDRTTSEAQTEVPLDDPDRAGWPAGKDSIQYGRVKATVHLAYLRAVGTPLCLYALFLFLCQQVASFCRGYWLSLWADDPAVGGQQTQAALRGGIFGLLGCLQAIGLFASMAAVLLGGARASRLLFQRLLWDVVRSPISFFERTPIGHLLNRFSKETDTVDVDIPDKLRSLLMYAFGLLEVSLVVAVATPLATVAILPLFLLYAGFQSLYVVSSCQLRRLESASYSSVCSHMAETFQGSTVVRAFRTQAPFVAQNNARVDESQRISFPRLVADRWLAANVELLGNGLVFAAATCAVLSKAHLSAGLVGFSVSAALQVTQTLQWVVRNWTDLENSIVSVERMQDYAWTPKEAPWRLPTCAAQPPWPQGGQIEFRDFGLRYRPELPLAVQGVSFKIHAGEKVGIVGRTGAGKSSLASGLLRLQEAAEGGIWIDGVPIAHVGLHTLRSRISIIPQDPILFPGSLRMNLDLLQEHSDEAIWAALETVQLKALVASLPGQLQYKCADRGEDLSVGQKQLLCLARALLRKTQILILDEATAAVDPGTELQMQAMLGSWFAQCTVLLIAHRLRSVMDCARVLVMDKGQVAESGSPAQLLAQKGLFYRLAQESGLV
# Variants of: B1
# Conditions: with mlp3b_human MAP1LC3B
row,effect of a mutation on the interaction,Variant
1,increasing interaction strength,S492F

# Variants of: B1
# Conditions: with gbrl1_human GABARAPL1, Q9H0R8
# Sequence of gbrl1_human GABARAPL1, Q9H0R8 (Q9H0R8 whole entry, looked up): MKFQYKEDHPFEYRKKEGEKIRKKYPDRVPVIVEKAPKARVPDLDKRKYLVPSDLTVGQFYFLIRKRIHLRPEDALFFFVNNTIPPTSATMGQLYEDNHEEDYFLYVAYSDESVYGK
row,effect of a mutation on the interaction,Variant
1,increasing interaction strength,S492F

# Variants of: B2
# Conditions: with ima3_human KPNA4, O00629
# Sequence of ima3_human KPNA4, O00629 (O00629 whole entry): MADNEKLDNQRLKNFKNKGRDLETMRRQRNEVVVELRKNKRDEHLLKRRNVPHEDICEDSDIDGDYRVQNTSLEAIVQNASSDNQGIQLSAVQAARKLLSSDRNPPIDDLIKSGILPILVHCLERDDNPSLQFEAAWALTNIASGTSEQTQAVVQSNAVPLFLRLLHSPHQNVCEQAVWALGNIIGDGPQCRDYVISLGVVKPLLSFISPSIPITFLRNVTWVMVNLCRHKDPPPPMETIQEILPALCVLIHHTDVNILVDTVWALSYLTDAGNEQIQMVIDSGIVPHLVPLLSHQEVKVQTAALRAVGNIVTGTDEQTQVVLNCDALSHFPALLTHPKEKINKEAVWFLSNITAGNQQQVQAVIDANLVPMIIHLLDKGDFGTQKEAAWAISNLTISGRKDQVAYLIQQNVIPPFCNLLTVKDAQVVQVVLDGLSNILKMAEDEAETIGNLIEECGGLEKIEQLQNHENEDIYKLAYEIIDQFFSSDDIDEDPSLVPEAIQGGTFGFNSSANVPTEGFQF
row,effect of a mutation on the interaction,Variant
1,disrupting interaction strength,MFVSDFRKEFYEVVQSQRVLLFVASDVDALCACKILQALFQCDHVQYTLVPVSGWQELETAFLEHKEQFHYFILINCGANVDLLDILQPDEDTIFFVCDTHRPVNVVNVYNDTQIKLLIKQDDDLEVPAYEDIFRDEEEDEEHSGNDSDGSEPSEKCTRLEEEIVEQTMRRRQRREWEARRRDILFDYEQYEYHGTSSAMVMFELAWMLSKDLNDMLWWAIVGLTDQWVQDKITQMKYVTDVGVLQRHVSRHNHRNEDEENTLSVDCTRISFEYDLRLVLYQHWSLHDSLCNTSYTAARFKLWSVHGQKRLQEFLADMGLPLKQVKQKFQAMDISLKENLREMIEESANKFGMKDMRVQTFSIHFGFKHKFLASDVVFATMSLMESPEKDGSGTDHFIQALDSLSRSNLDKLYHGLELAKKQLRATQQTIASCLCTNLVISQGPFLYCSLMEGTPDVMLFSRPASLSLLSKHLLKSFVCSTKNRRCKLLPLVMAAPLSMEHGTVTVVGIPPETDSSDRKNFFGRAFEKAAESTSSRMLHNHFDLSVIELKAEDRSKFLDALISLLS [R157C]

# Variants of: B2
# Conditions: with ima8_human KPNA7, A9QM74
# Sequence of ima8_human KPNA7, A9QM74 (A9QM74 whole entry): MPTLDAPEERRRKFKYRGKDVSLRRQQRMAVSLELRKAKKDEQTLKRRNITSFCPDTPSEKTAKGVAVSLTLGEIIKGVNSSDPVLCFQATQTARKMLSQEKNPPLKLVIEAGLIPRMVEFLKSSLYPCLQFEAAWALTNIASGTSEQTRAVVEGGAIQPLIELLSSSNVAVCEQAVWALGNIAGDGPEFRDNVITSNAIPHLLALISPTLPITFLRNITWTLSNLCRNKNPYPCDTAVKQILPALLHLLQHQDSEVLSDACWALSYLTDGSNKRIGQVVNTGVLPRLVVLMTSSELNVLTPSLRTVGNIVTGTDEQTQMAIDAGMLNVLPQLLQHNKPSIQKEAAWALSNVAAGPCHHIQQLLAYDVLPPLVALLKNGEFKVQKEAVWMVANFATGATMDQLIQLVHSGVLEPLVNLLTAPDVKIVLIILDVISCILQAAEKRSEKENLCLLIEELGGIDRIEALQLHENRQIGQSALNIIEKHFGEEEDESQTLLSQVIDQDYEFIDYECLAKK
row,effect of a mutation on the interaction,Variant
1,disrupting interaction strength,MFVSDFRKEFYEVVQSQRVLLFVASDVDALCACKILQALFQCDHVQYTLVPVSGWQELETAFLEHKEQFHYFILINCGANVDLLDILQPDEDTIFFVCDTHRPVNVVNVYNDTQIKLLIKQDDDLEVPAYEDIFRDEEEDEEHSGNDSDGSEPSEKCTRLEEEIVEQTMRRRQRREWEARRRDILFDYEQYEYHGTSSAMVMFELAWMLSKDLNDMLWWAIVGLTDQWVQDKITQMKYVTDVGVLQRHVSRHNHRNEDEENTLSVDCTRISFEYDLRLVLYQHWSLHDSLCNTSYTAARFKLWSVHGQKRLQEFLADMGLPLKQVKQKFQAMDISLKENLREMIEESANKFGMKDMRVQTFSIHFGFKHKFLASDVVFATMSLMESPEKDGSGTDHFIQALDSLSRSNLDKLYHGLELAKKQLRATQQTIASCLCTNLVISQGPFLYCSLMEGTPDVMLFSRPASLSLLSKHLLKSFVCSTKNRRCKLLPLVMAAPLSMEHGTVTVVGIPPETDSSDRKNFFGRAFEKAAESTSSRMLHNHFDLSVIELKAEDRSKFLDALISLLS [R157C]

# Variants of: B2
# Conditions: with ima3_human KPNA4, O00629
# Remark: another data set of the same source
row,effect of a mutation on the interaction,Variant
1,decreasing interaction strength,MFVSDFRKEFYEVVQSQRVLLFVASDVDALCACKILQALFQCDHVQYTLVPVSGWQELETAFLEHKEQFHYFILINCGANVDLLDILQPDEDTIFFVCDTHRPVNVVNVYNDTQIKLLIKQDDDLEVPAYEDIFRDEEEDEEHSGNDSDGSEPSEKCTRLEEEIVEQTMRRRQRREWEARRRDILFDYEQYEYHGTSSAMVMFELAWMLSKDLNDMLWWAIVGLTDQWVQDKITQMKYVTDVGVLQRHVSRHNHRNEDEENTLSVDCTRISFEYDLRLVLYQHWSLHDSLCNTSYTAARFKLWSVHGQKRLQEFLADMGLPLKQVKQKFQAMDISLKENLREMIEESANKFGMKDMRVQTFSIHFGFKHKFLASDVVFATMSLMESPEKDGSGTDHFIQALDSLSRSNLDKLYHGLELAKKQLRATQQTIASCLCTNLVISQGPFLYCSLMEGTPDVMLFSRPASLSLLSKHLLKSFVCSTKNRRCKLLPLVMAAPLSMEHGTVTVVGIPPETDSSDRKNFFGRAFEKAAESTSSRMLHNHFDLSVIELKAEDRSKFLDALISLLS [R157C]

# Variants of: B3
# Conditions: with itsn1_human ITSN1, Q15811
# Sequence of itsn1_human ITSN1, Q15811 (Q15811 whole entry): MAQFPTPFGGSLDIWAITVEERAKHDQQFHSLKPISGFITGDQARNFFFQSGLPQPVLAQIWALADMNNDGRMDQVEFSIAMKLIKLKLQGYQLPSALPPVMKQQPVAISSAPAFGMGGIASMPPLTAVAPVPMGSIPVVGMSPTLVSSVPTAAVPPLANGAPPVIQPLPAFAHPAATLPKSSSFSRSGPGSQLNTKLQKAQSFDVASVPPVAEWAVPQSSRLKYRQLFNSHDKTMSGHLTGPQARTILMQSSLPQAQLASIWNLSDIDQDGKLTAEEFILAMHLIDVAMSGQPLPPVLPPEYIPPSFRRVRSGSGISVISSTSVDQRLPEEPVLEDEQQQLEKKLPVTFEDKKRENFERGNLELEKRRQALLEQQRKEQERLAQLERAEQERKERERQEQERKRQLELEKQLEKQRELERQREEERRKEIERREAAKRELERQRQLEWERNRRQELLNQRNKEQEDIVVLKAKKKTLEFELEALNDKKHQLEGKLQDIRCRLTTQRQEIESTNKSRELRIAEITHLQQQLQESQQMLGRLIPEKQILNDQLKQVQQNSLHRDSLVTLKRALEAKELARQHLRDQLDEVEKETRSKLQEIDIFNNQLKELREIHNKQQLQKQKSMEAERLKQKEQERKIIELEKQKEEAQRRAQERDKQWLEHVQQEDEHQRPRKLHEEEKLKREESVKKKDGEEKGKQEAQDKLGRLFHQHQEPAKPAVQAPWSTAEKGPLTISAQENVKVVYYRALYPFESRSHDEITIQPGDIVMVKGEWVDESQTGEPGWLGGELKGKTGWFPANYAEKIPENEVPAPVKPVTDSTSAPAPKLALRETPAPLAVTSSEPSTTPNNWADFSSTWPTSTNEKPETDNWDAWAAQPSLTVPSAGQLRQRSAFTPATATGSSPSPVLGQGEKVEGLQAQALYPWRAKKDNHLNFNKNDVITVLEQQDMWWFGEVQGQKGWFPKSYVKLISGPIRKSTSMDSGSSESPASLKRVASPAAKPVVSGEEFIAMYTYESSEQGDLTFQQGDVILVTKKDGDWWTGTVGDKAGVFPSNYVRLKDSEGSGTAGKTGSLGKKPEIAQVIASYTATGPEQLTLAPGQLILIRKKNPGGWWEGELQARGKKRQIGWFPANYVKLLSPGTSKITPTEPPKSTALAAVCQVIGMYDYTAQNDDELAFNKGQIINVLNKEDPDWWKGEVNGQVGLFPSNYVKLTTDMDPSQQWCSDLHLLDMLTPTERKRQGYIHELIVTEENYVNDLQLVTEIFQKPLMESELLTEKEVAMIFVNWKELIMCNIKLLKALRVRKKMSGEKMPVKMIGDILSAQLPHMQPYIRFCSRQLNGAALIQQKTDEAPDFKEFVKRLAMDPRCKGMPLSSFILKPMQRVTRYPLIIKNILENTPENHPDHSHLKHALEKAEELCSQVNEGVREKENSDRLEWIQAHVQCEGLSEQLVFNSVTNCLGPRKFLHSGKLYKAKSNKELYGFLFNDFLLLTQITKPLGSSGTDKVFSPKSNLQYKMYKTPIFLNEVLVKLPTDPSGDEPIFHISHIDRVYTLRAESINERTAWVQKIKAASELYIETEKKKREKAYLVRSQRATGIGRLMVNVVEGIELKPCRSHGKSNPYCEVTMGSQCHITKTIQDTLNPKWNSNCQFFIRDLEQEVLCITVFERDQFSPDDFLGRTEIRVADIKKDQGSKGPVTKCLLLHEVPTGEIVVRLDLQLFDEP
row,effect of a mutation on the interaction,Variant
1,decreasing interaction strength,R620W

# Variants of: B4
# Conditions: with mlp3b_human MAP1LC3B
row,effect of a mutation on the interaction,Variant
1,decreasing interaction strength,L1226I

# Variants of: B4
# Conditions: with mlp3a_human MAP1LC3A
row,effect of a mutation on the interaction,Variant
1,decreasing interaction strength,L1226I
